According to the supplement of paper PMC12042874:
± gives the uncertainty stated by the source.

Assay: amyloid nucleation score (Sup35N fusion, yeast selection) (log enrichment); library NNK3; higher = more nucleation; inactive = no reads after selection
Method in brief: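 Random libraries were run with three technical output replicates. In each, psi-negative yeast expressing Sup35N fused to peptides of 20 random codons were induced 24 hours with 100 μM copper sulfate and grown 7 days at 30°C on medium lacking adenine and uracil, and input and output plasmid inserts were Illumina-sequenced. The nucleation score is the DiMSum log enrichment of output over input reads, centred on the mode score of non-aggregating sequences, and sequences under 100 input reads were excluded.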

MPYMW
amyloid nucleation score: 0.73 ± 0.29

AMSTGSSTWWYRSSKAIRGS
amyloid nucleation score: inactive

GFLCDGGN
amyloid nucleation score: 0.149 ± 0.51

SRSDKNHRNVANLNGVWCVT
amyloid nucleation score: inactive

ENLSEVWLSYVDSLSIYVLS
amyloid nucleation score: inactive

GSMLTDIVCFKYKVWDPIIL
amyloid nucleation score: inactive

CRGYADFT
amyloid nucleation score: inactive

LVASSRW
amyloid nucleation score: inactive

ALFAGLIECQCDNILGPETG
amyloid nucleation score: inactive

LFDLVYRWTWNED
amyloid nucleation score: -0.592 ± 0.76

AMFTRSRVSITLCGRWAYCS
amyloid nucleation score: inactive

ESRFCTYVSSRDYISTIQFN
amyloid nucleation score: inactive

GTDSGTRSDNV
amyloid nucleation score: 0.328 ± 0.63

IRRRLEMLNTSLYSHI
amyloid nucleation score: inactive

QGFFGDNNAV
amyloid nucleation score: inactive

DKFMWVGNSCVHSD
amyloid nucleation score: inactive

FVMSFAN
amyloid nucleation score: inactive

CPFHIIHKQSLRKMMSTWEA
amyloid nucleation score: inactive

GFTVG
amyloid nucleation score: inactive

YLLFIWSAYENKVGIGYITE
amyloid nucleation score: inactive

QVLTFVYFHDNVMVLGWEYS
amyloid nucleation score: 0.206 ± 0.78

HQTRIMPGLLGKRAFIRVRL
amyloid nucleation score: inactive

IITSLK
amyloid nucleation score: 0.154 ± 0.27

PIPLIPFE
amyloid nucleation score: inactive

EFIGGRAMLYEEWYMGVSSM
amyloid nucleation score: inactive

AWVLCVKERFRSAGCECTGF
amyloid nucleation score: inactive

YLITHV
amyloid nucleation score: inactive

WMVVTMPSLKCGSYASVHGA
amyloid nucleation score: inactive

EYYLDMDLMFMMG
amyloid nucleation score: inactive

LFTLKLTVSKMKLWLLYGCS
amyloid nucleation score: inactive

FLQNFWA
amyloid nucleation score: inactive

YRLLEQLTLSCWANRVLRLG
amyloid nucleation score: -0.077 ± 0.61

NIILCCAKVFKPYMSTMTTP
amyloid nucleation score: 1.98 ± 0.061

GDHYGVEYSHPL
amyloid nucleation score: inactive

RSCMQLVCTCPFTGTTSRMI
amyloid nucleation score: 2.63 ± 0.055

NIIKTLAVRSGRRFRFLVRW
amyloid nucleation score: inactive

TIFVTTR
amyloid nucleation score: inactive

YFILLGSAGRCAPMM
amyloid nucleation score: 0.71 ± 0.23

TIEYLAGYFILMSQILGGDV
amyloid nucleation score: inactive

MYGLHLNPALITVYFRGKGL
amyloid nucleation score: -0.018 ± 0.34

NDASPLFSKGVLDFLSTKSL
amyloid nucleation score: inactive

NLTINVVAVQFLFMTTGY
amyloid nucleation score: 2.63 ± 0.08

RHLIAFVVNNSFLVDYDSIS
amyloid nucleation score: inactive

FGVTVSYKWWRWSPLSYCAM
amyloid nucleation score: inactive

KIYDVFSRFKYRMQSVYKQA
amyloid nucleation score: inactive

WIMWTLAIKIIMCW
amyloid nucleation score: inactive

SYRLCCSMIGFSTGGRSHVE
amyloid nucleation score: inactive

TSPPGRIDMQTSWDMFYADE
amyloid nucleation score: inactive

TSDVEVSRMIVCIWTSFIYQ
amyloid nucleation score: 0.142 ± 0.52

ILIPNNFLLMQLDWLLIEF
amyloid nucleation score: inactive

GLGSFLRQRRACPSGGTQ
amyloid nucleation score: inactive

NRTWIGIIHLFGLYYGVCGG
amyloid nucleation score: 0.621 ± 0.2

DNKLDNRYLGYRFRCTTFHF
amyloid nucleation score: inactive

YLFGRFPNGLVGRRGSGLLM
amyloid nucleation score: inactive

FGNGSMNRDRSSM
amyloid nucleation score: inactive

PLKIYIGNQLV
amyloid nucleation score: inactive

RAVNKFAVNTTKGGSHSWHS
amyloid nucleation score: inactive

DNARCSLHFYNSCWISVWKY
amyloid nucleation score: inactive

ELMHFLAFVGDAMYVLSGII
amyloid nucleation score: inactive

NVDVTELCTAVTYNDLHGFR
amyloid nucleation score: inactive

SKARQEL
amyloid nucleation score: inactive

NLSNLLNLVRLVRGRLGNAA
amyloid nucleation score: inactive

DCKINIGVVVSLGACLSWSE
amyloid nucleation score: 1.65 ± 0.084

RIFFGISVIQFLIRSYSVHR
amyloid nucleation score: inactive

VLYCGHCFVFTRCSGWVQLG
amyloid nucleation score: inactive

YCKIKLIQGNRFNEYISYCD
amyloid nucleation score: 2.56 ± 0.054

NVFSFFTTSSEKGLCPPRRS
amyloid nucleation score: inactive

SMAMFIFMITLVCYFKDSPW
amyloid nucleation score: inactive

SFHTDTPLMRHYIMRFYNDY
amyloid nucleation score: inactive

YHIRR
amyloid nucleation score: inactive

YLRQIYFPCSTP
amyloid nucleation score: inactive

NMDNHTPG
amyloid nucleation score: inactive

FFYYMYMFDVITILRVIMGC
amyloid nucleation score: inactive

RSGHRGHYKFEL
amyloid nucleation score: inactive

SNTFRTIGS
amyloid nucleation score: inactive

MCRSNFAWSPSHK
amyloid nucleation score: inactive

GCSGVVVGCWRDPRICWLWW
amyloid nucleation score: inactive

LCSNLSGDVYELVSHFPGGD
amyloid nucleation score: inactive

ETTYGFDKIYGVEYVCGLCR
amyloid nucleation score: inactive

VMLRTFSA
amyloid nucleation score: inactive

VCKMSNMFNSFCYYASQFCY
amyloid nucleation score: inactive

RCLRKSSIFA
amyloid nucleation score: inactive

LCVLPMSSTRGPHNICSTLL
amyloid nucleation score: inactive

DSSNGFICR
amyloid nucleation score: inactive

WGSGY
amyloid nucleation score: inactive

SYLFYMHSSVLGSLMGQRDH
amyloid nucleation score: inactive

VSKVKSNPPYITDEIVFCRR
amyloid nucleation score: inactive

LRRYALGLSYCLEVK
amyloid nucleation score: inactive

EKFTMLARSKAAICLVDKSC
amyloid nucleation score: -0.463 ± 0.93

LIRYPGRSEDTVRFWRERMG
amyloid nucleation score: inactive

ITVCYMNKIWLK
amyloid nucleation score: inactive

LLCNESILKPVTPKWRDCKL
amyloid nucleation score: inactive

RRSVAFLPYMSW
amyloid nucleation score: inactive

GLNGIDLKLSVAGFVVFLGR
amyloid nucleation score: 1.48 ± 0.14

VLDRVKNRVFYLLVECQKLF
amyloid nucleation score: inactive

LSSCKLSYSKQLSRTVNQL
amyloid nucleation score: inactive

CASLCHSSGVCRD
amyloid nucleation score: inactive

LQYWSFKSSSYGGLDIYCEA
amyloid nucleation score: inactive

NVNGSFKI
amyloid nucleation score: inactive

PMQAS
amyloid nucleation score: inactive

PGLCGNGHNDHKTVNIEVYH
amyloid nucleation score: inactive

GFKVVYKIWLPASRSACDPW
amyloid nucleation score: 1.31 ± 0.13

INPLLR
amyloid nucleation score: 0.744 ± 0.2

SSTNPGIH
amyloid nucleation score: inactive

LIQVIGLSIALRTMSCLRGS
amyloid nucleation score: inactive

SRFLRMASGYWSN
amyloid nucleation score: inactive

MRGRFLASPGWFTFRIFFVF
amyloid nucleation score: 0.836 ± 0.27

TLSWNISCVCSERPFFNMHV
amyloid nucleation score: inactive

AFISSKARTYKIRMMPVPTS
amyloid nucleation score: inactive

MHNHMYISKEMLYNERTLSI
amyloid nucleation score: inactive

GKLTWIYIGIARPHEKMWLT
amyloid nucleation score: inactive

FYELEIV
amyloid nucleation score: inactive

ARSNRCSM
amyloid nucleation score: inactive

SSLLVRVRIYMGMMLLTIVR
amyloid nucleation score: inactive

DMIYMLVAFARFIYLDTCIR
amyloid nucleation score: inactive

LFATAEPMLRWVRSRLV
amyloid nucleation score: inactive

LMFEL
amyloid nucleation score: inactive

LILNYGGLPWFIPIP
amyloid nucleation score: inactive

GCSLTWAVAEALTILVNAYT
amyloid nucleation score: inactive

CLFRQTFCMGP
amyloid nucleation score: inactive

YYMNVESALECECWTIFKPC
amyloid nucleation score: inactive

YPSDPLLILDLGIAAC
amyloid nucleation score: inactive

CQVMSNFCNGMPQTQFGVGS
amyloid nucleation score: inactive

AGCAIALLYGWESLRAVFL
amyloid nucleation score: inactive

LSPYRYSCYPYPTYSRYP
amyloid nucleation score: 0.44 ± 0.24

FYTMELISVQRI
amyloid nucleation score: inactive

GRDCICDLRMETIGDTFTGW
amyloid nucleation score: inactive

CTTDRGVVLWVCRNG
amyloid nucleation score: inactive

LSLNLSLNMKVKLYVYWGYR
amyloid nucleation score: inactive

ALYRSGLNFVIRVGTLLMIW
amyloid nucleation score: 1.06 ± 0.12

PTSVY
amyloid nucleation score: 0.481 ± 0.32

QWWSLVTCQAMMN
amyloid nucleation score: inactive

HFPSFFSIIPYRACNTACSA
amyloid nucleation score: -0.984 ± 1.4

SGTGNGKIPMDRSVSDCVRE
amyloid nucleation score: 0.035 ± 0.37

ISTCMMFLF
amyloid nucleation score: inactive

INYQLMW
amyloid nucleation score: 0.9 ± 0.1

RLPCPCNSVACVRTWISRCS
amyloid nucleation score: inactive

MMYRSRFGLKMLPGLQPAIA
amyloid nucleation score: inactive

LLYIRC
amyloid nucleation score: 0.705 ± 0.23

LWSLHMESDWGVRIHSRSLI
amyloid nucleation score: inactive

ESNDIIINV
amyloid nucleation score: inactive

LMDLNADKWHNAFTYSSVVE
amyloid nucleation score: inactive

EINFMKRASRVRLKQYNQ
amyloid nucleation score: 0.64 ± 0.26

EQMWFEVCYGCRSCSEALLR
amyloid nucleation score: inactive

NNTCMNGAVLWSEMAKTGGC
amyloid nucleation score: inactive

LKVTSFKALHCLTAYHSSPL
amyloid nucleation score: inactive

RANDEEFHR
amyloid nucleation score: inactive

IGLLYLHLPNIALINRSVVG
amyloid nucleation score: inactive

AKFARYSTYLPLLSVHDIND
amyloid nucleation score: inactive

YFSACTVKKHTSWCADVT
amyloid nucleation score: inactive

DLFDSRVVSSDAVSCYYAAS
amyloid nucleation score: inactive

RASFLSFCFSMAGFSLFDIK
amyloid nucleation score: inactive

FVNLAGLFGSRGTNLLCLGE
amyloid nucleation score: inactive

ISIVKGCAFGLLSTFMATPS
amyloid nucleation score: 0.079 ± 0.75

VSVCLVCAVIPRLLSMRCIV
amyloid nucleation score: inactive

PDGTILMCGRPMCYIVYGAK
amyloid nucleation score: inactive

TYSGRSKSILTGSID
amyloid nucleation score: inactive

YLMNVLFAYVD
amyloid nucleation score: inactive

RYGTLGDLV
amyloid nucleation score: inactive

LFWSWYGGWKLNWGI
amyloid nucleation score: 0.661 ± 0.14
